Reference: publication PMC5669352

Target: native mapacalcine (Cliona vastifica) (UniProt P86916)
Test: MALDI-MS

stoichiometry N: 2
Substance: native mapacalcine (from UniProt P86916 1-89) (natural protein)
